According to US20230050380A1 (CHIOME BIOSCIENCE, published 2023):
Substitutions are numbered along the chain they refer to.

T1: full-length hCDCP1 with N-terminal c-Myc tag (expression vector GS01), on Ba/F3-hCDCP1 cells or … (human, UniProt Q9H5V8 30-836)
T1 construct: also called human CDCP1; hCDCP1 forced expression cells
T1 sequence: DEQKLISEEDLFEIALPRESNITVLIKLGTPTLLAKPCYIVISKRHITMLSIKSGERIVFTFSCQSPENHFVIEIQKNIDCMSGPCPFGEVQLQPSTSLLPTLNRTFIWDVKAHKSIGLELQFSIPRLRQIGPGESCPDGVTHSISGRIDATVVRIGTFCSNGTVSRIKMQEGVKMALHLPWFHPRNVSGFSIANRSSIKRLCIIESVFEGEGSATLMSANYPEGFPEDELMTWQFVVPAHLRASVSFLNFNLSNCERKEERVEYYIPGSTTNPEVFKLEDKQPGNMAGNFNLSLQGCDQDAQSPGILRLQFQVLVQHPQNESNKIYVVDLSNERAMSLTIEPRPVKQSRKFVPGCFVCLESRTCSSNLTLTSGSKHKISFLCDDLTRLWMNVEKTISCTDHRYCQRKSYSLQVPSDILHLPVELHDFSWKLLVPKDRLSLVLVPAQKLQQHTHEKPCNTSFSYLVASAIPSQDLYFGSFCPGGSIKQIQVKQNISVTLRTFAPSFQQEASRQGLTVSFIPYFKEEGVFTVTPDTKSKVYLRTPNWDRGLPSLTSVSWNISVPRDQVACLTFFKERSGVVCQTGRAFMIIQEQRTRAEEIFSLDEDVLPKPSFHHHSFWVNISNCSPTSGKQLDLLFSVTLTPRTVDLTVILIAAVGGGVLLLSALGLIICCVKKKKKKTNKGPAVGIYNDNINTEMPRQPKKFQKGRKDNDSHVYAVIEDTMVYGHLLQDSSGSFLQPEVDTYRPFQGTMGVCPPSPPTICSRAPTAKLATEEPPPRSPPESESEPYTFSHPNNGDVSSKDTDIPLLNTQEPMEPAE

B1: mh12A041HCori/LCoriA (antibody, human IgG1, kappa, V domains shown)
VH: EVQLQESGPGILQPSQTLSLTCSFSGFSLSTSGMGVSWIRQPSGKGLEWLAHIYWDDDKRYNPSLKSRLTISKDTSSNQVFLKITSVDTADTATYYCARSGSYYGSSLDCWGQGTTLTVSS
VL: DVLMTQTPLSLPVSLGDQASISCRSSQSIVYSNGNTYLEWYLQKPGQSPKLLIYKVSNRFSGVPDRFSGSGSGTDFTLKISRVEAEDLGVYYCFQGSHVPWTFGGGTKLEIRR
notes: mouse-human chimeric antibody, human IgG1/kappa constant regions
B2: mh12A041HCori/LCoriB (antibody, human IgG1, kappa, V domains shown)
VH: B1 VH
VL: B1 VL with S28N, Y31H, N33D
notes: as for B1
B3: mh12A041HCori/LCv1 (antibody, human IgG1, kappa, V domains shown)
VH: B1 VH
VL: B1 VL with Y31H, N33S
notes: as for B1
B4: mh12A041HCori/LCv2 (antibody, human IgG1, kappa, V domains shown)
VH: B1 VH
VL: B1 VL with Y31H, G34A
notes: as for B1
B5: mh12A041HCoriA/LCori (antibody, human IgG1, kappa, V domains shown)
VH: B1 VH with S32F
VL: B1 VL with Y31H, R112K
notes: as for B1
B6: mh12A041HCoriA/LCoriA (antibody, human IgG1, kappa, V domains shown)
VH: B1 VH with S32F
VL: B1 VL
notes: as for B1
B7: mh12A041HCoriA/LCoriB (antibody, human IgG1, kappa, V domains shown)
VH: B1 VH with S32F
VL: B1 VL with S28N, Y31H, N33D
notes: as for B1
B8: mh12A041HCv1/LCori (antibody, human IgG1, kappa, V domains shown)
VH: B1 VH with C110S
VL: B1 VL with Y31H, R112K
notes: as for B1
B9: mh12A041HCv1/LCv1 (antibody, human IgG1, kappa, V domains shown)
VH: B1 VH with C110S
VL: B1 VL with Y31H, N33S
notes: as for B1
B10: mh12A041HCv1/LCv2 (antibody, human IgG1, kappa, V domains shown)
VH: B1 VH with C110S
VL: B1 VL with Y31H, G34A
notes: as for B1
B11: mh14A025HCv1/LCori (antibody, human IgG1, kappa, V domains shown)
VH: EVQLQESGAELVRPGALVKLSCKASGFNIKDYYMHWVKQRPEQGLEWIGWIDPESGNTIYDPKFQGKASITADTSSNTAYLQLSSLTSEDTAVYYCGGLLYAMDYWGQGTSVTVSS
VL: DIQMTQTTSSLSASLGDRVTISCRASQDISNYLNWYQQKPDGTVKLLIYFTSRLHSGVPSRFSGSGSGTDYSLTISNLEQEDIATYFCQQGNTLPRTFGGGTKLEIRR
notes: as for B1
B12: mh14A025HCv2/LCori (antibody, human IgG1, kappa, V domains shown)
VH: B11 VH with S55N, G56A
VL: B11 VL
notes: as for B1
B13: mh14A025HCv5/LCori (antibody, human IgG1, kappa, V domains shown)
VH: B11 VH with S55N, G56D
VL: B11 VL
notes: as for B1
B14: mh14A025HCv7/LCori (antibody, human IgG1, kappa, V domains shown)
VH: B11 VH with S55N, G56E
VL: B11 VL
notes: as for B1
B15: mh14A025HCv8/LCori (antibody, human IgG1, kappa, V domains shown)
VH: B11 VH with S55F
VL: B11 VL
notes: as for B1
B16: mh14A025HCv15/LCori (antibody, human IgG1, kappa, V domains shown)
VH: B11 VH with S55N, G56L
VL: B11 VL
notes: as for B1
B17: mh14A025HCv17/LCori (antibody, human IgG1, kappa, V domains shown)
VH: B11 VH with S55N, G56M
VL: B11 VL
notes: as for B1
B18: mh14A025HCv19/LCori (antibody, human IgG1, kappa, V domains shown)
VH: B11 VH with S55R
VL: B11 VL
notes: as for B1
B19: mh14A025HCv21/LCori (antibody, human IgG1, kappa, V domains shown)
VH: B11 VH with S55T
VL: B11 VL
notes: as for B1
B20: mh14A025HCv24/LCori (antibody, human IgG1, kappa, V domains shown)
VH: B11 VH with S55W
VL: B11 VL
notes: as for B1
B21: mh14A043HCori/LCv1 (antibody, human IgG1, kappa, V domains shown)
VH: B11 VH with H35N, S55N, G97Y, L99S, L100S, A102R, M103F, D104T, S111L
VL: QIVLIQSPALMSASPGEKVTMTCSASSSVSYLYWYQQKPRSSPKPWIYLTSNLASGVPARFSGSGSGTSYSLTISSMEAEDAATYYCQQWSSNPFTFGSGTKLEIKR
notes: as for B1
B22: mh14A043HCv1/LCori (antibody, human IgG1, kappa, V domains shown)
VH: B11 VH with H35N, G97Y, L99S, L100S, A102R, M103F, D104T, S111L
VL: B21 VL with L32M
notes: as for B1
B23: mh14A043HCv1/LCv1 (antibody, human IgG1, kappa, V domains shown)
VH: B11 VH with H35N, G97Y, L99S, L100S, A102R, M103F, D104T, S111L
VL: B21 VL
notes: as for B1
B24: mh14A043HCv2/LCori (antibody, human IgG1, kappa, V domains shown)
VH: B11 VH with H35N, S55N, G56A, G97Y, L99S, L100S, A102R, M103F, D104T, S111L
VL: B21 VL with L32M
notes: as for B1
B25: mh14A043HCv2/LCv1 (antibody, human IgG1, kappa, V domains shown)
VH: B11 VH with H35N, S55N, G56A, G97Y, L99S, L100S, A102R, M103F, D104T, S111L
VL: B21 VL
notes: as for B1
B26: mh14A063HCori/LCv1 (antibody, human IgG1, kappa, V domains shown)
VH: EVQLQESGGGLVQPGGSLKLSCAASGFTFSSYTMSWVRQTPEKRLEWVAYISNGGGSTYYPDTVKGRFTISRDNAKNTLYLQMSSLKSEDTAMYYCARYDLGFAYWGQGTLVTVSS
VL: NIVLTQSPASLAVSLGQRATISCRASESVDSYGNSFLHWYQQKPGQPPKLLIFLASNLESGVPARFSGSGSRTDFTLTIDPVEADDAATYYCQQNNEDPWTFGGGTNLEIKR
notes: as for B1
B27: mh14A063HCv1/LCori (antibody, human IgG1, kappa, V domains shown)
VH: B26 VH with N53S
VL: B26 VL with L37M
notes: as for B1
B28: mh14A063HCv1/LCv1 (antibody, human IgG1, kappa, V domains shown)
VH: B26 VH with N53S
VL: B26 VL
notes: as for B1
B29: mh14A063HCv2/LCori (antibody, human IgG1, kappa, V domains shown)
VH: B26 VH with G54A
VL: B26 VL with L37M
notes: as for B1
B30: mh14A063HCv2/LCv1 (antibody, human IgG1, kappa, V domains shown)
VH: B26 VH with G54A
VL: B26 VL
notes: as for B1
B31: h12A041VH1/VL (antibody, human IgG1, kappa, V domains shown)
VH: QVTLRESGPALVKPTQTLTLTCTFSGFSLSTSGMGVSWIRQPPGKALEWLAHIYWDDDKRYNPSLKSRLTISKDTSKNQVVLTMTNMDPVDTATYYCARSGSYYGSSLDSWGQGTTVTVSS
VL: DIVMTQSPLSLPVTPGEPASISCRSSQSIVHSSGNTYLEWYLQKPGQSPQLLIYKVSNRFSGVPDRFSGSGSGTDFTLKISRVEAEDVGVYYCFQGSHVPWTFGGGTKVEIKR
notes: humanized antibody, human IgG1/kappa constant regions; also called h12A041VH1/VL-biotin (biotinylated form)
B32: h12A041VH1/VLA (antibody, human IgG1, kappa, V domains shown)
VH: B31 VH
VL: B31 VL with H31Y
notes: humanized antibody, human IgG1/kappa constant regions; also called h12A041VH1/VLA-biotin (biotinylated form); h12A041VH1NLA-biotin
B33: h12A041VH1/VLB (antibody, human IgG1, kappa, V domains shown)
VH: B31 VH
VL: B31 VL with S28N, S33D
notes: humanized antibody, human IgG1/kappa constant regions; also called h12A041VH1/VLB-biotin (biotinylated form)
B34: h12A041VH1A/VL (antibody, human IgG1, kappa, V domains shown)
VH: B31 VH with S32F
VL: B31 VL
notes: humanized antibody, human IgG1/kappa constant regions; also called h12A041VH1A/VL-biotin (biotinylated form)
B35: h12A041VH1A/VLA (antibody, human IgG1, kappa, V domains shown)
VH: B31 VH with S32F
VL: B31 VL with H31Y
notes: humanized antibody, human IgG1/kappa constant regions
B36: h12A041VH1A/VLB (antibody, human IgG1, kappa, V domains shown)
VH: B31 VH with S32F
VL: B31 VL with S28N, S33D
notes: as for B35

Molecular target: T1, full-length hCDCP1 with N-terminal …
Assay: flow cytometry on Ba/F3-hCDCP1 cells

Row | Binder | binding result
1 | B1 | binds
2 | B2 | binds
3 | B3 | binds
4 | B4 | binds
5 | B5 | binds
6 | B6 | binds
7 | B7 | binds
8 | B8 | binds
9 | B9 | binds
10 | B10 | binds
11 | B11 | binds
12 | B12 | binds
13 | B13 | binds
14 | B14 | binds
15 | B15 | binds
16 | B16 | binds
17 | B17 | binds
18 | B18 | binds

Row | Binder | binding result
19 | B19 | binds
20 | B20 | binds
21 | B21 | binds
22 | B22 | binds
23 | B23 | binds
24 | B24 | binds
25 | B25 | binds
26 | B26 | binds
27 | B27 | binds
28 | B28 | binds
29 | B29 | binds
30 | B30 | binds
31 | B31 | binds
32 | B32 | binds
33 | B33 | binds
34 | B34 | binds
35 | B35 | binds
36 | B36 | binds
